Measured values published in PMC4481223.
Values joined by “and” are separate entries in the source; they are usually repeats but may differ in a detail not shown here. Identical values can stand only once.

Legend:
[1] = target: fused Cp (genetically-fused dimer of the hepatitis B virus core protein assembly domain) (hepatitis B virus); assay: native MS; non-covalent ESI-MS of oligomer samples isolated by SEC, button-dialysed into 100 mM ammonium acetate pH 6.8 (fused Cp samples at pH 9.5)
[2] = target: fused Cp (genetically-fused dimer of the hepatitis B virus core protein assembly domain) (hepatitis B virus); assay: SEC; pooled peaks 2-4 of the fused Cp disassembly re-run on a 26/60 Superdex-200 column calibrated with molecular weight standards, 1.0 ml/min; masses from the standard curve

fused Cp (genetically-fused dimer of the hepatitis B virus core protein assembly domain)
stoichiometry N [1]: 2 and 3 | stoichiometry N [2]: 2 copies and 3 copies and 5 copies
